The record followed here is patent US20160264664A1 (Ablynx, published 2016).

Substitutions are numbered along the chain they refer to.

The target of assay [1] is T1, mouse P2X7 (mouse, UniProt Q9Z1M0 1-595).
T1 construct: on transfected CHO or Hek293 cells, or endogenous on Yac-1 cells; also called mP2X7; mouse purinoceptor P2X7
T1 sequence: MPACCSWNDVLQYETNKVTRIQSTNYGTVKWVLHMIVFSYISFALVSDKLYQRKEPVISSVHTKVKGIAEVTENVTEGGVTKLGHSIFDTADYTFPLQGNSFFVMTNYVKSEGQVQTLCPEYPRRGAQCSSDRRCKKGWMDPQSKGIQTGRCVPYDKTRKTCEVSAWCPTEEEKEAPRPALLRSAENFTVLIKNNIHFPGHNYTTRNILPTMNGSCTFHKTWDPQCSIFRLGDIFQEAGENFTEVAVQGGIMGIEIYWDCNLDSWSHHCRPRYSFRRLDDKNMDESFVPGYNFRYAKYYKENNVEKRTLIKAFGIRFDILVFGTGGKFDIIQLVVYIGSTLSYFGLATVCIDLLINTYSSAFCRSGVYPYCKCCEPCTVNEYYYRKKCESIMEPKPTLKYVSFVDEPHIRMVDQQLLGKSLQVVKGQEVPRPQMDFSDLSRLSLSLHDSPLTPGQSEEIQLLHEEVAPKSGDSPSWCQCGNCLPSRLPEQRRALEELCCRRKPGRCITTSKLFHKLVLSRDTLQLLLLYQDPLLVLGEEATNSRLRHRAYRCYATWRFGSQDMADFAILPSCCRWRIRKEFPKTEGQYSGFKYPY
The experiment in a line: Table A-1 'P2X7 function'; screening on mP2X7-expressing cells.

Assay [2] addresses T1, mouse P2X7. Description: flow cytometry, periplasmic extract pre-incubated with anti-myc-FITC, on mP2X7-Hek293 cells. (In general: Flow cytometry measures light scatter and fluorescence of single cells or particles in a stream.)
Description: Ten-fold diluted PE were pre-incubation with 0.5 μg anti-myc FITC-conjugated antibodies (AbD Serotec, cat no. MCA2200F) (creating pseudo-bivalent Nanobodies in order to increase binding strength) in 0.1 ml PBS/10% FCS for 45 minutes at 4° C. […] Alternatively, sequential staining of 10-fold diluted PE with anti-myc FITC-conjugated antibodies was done after incubation with the cells.
The next assay addresses T2, human P2X7 (human, UniProt Q99572 1-595).
T2 construct: on transfected Hek293 cells; also called hP2X7
T2 sequence: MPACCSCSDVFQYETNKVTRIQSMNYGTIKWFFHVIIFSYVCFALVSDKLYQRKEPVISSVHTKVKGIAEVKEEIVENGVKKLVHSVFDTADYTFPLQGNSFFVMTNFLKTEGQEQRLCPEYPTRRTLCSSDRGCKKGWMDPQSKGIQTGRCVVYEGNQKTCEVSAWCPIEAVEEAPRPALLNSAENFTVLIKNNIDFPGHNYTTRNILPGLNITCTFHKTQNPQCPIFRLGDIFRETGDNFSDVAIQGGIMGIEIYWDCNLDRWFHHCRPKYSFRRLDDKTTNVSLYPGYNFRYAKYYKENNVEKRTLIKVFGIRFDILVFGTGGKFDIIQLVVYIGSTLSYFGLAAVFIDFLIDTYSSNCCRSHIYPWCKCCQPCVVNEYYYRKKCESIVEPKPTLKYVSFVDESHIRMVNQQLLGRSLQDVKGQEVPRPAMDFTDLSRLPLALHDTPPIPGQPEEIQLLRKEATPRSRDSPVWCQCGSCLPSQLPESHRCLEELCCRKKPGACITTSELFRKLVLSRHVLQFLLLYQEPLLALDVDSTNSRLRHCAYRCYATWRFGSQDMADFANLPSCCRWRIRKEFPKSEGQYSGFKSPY
Description: flow cytometry, Nanobody pre-incubated with anti-Myc-FITC.

The target in the next assay is T3, human P2X4 (human, UniProt Q99571 1-388).
T3 construct: whole, on cells; also called hP2X4
T3 sequence (looked up): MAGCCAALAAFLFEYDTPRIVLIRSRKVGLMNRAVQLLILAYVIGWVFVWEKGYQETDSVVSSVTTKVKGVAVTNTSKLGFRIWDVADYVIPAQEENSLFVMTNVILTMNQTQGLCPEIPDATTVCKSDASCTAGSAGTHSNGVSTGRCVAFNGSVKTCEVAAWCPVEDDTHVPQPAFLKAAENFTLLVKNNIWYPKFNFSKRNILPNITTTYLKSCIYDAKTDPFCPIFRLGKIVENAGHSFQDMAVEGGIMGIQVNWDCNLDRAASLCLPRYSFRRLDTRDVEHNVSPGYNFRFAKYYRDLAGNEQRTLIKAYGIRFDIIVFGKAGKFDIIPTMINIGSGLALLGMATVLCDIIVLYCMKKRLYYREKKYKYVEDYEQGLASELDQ
The assay is described as above.

The target in assay [3] is T1, mouse P2X7. Description: phage ELISA, mP2X7-CHO vs control CHO cells.
Description: (§1) Sub-confluent cells were rinsed with PBS and fixed using 4% paraformaldehyde in PBS for 10 minutes at RT. Fixed cells were washed three times with PBS, and blocked with 2% BSA in PBS for 2 hours. Following blocking, 10-fold diluted culture supernatant containing phage was added and incubated for 1 hour. Cell-bound phage was detected via mouse anti-M13-HRP-conjugate (GE Healthcare, Cat nr. E2886). Rat mAb Hano43 was used as positive control.
For assay [4], the target named is T1, mouse P2X7. The experiment in a line: phage ELISA on fixed mP2X7-CHO vs untransfected CHO cells.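 Further: phage culture supernatant diluted 10-fold, applied for 1 h to paraformaldehyde-fixed, BSA-blocked cells in 96-well plates, with bound phage read via HRP-linked anti-M13 antibody.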
Description: as §1
Assay [5] deals with T1, mouse P2X7. The experiment in a line: cell-based or functional assay.
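Wherever MFI FACS (pre-Myc incubation) is given: periplasmic extract diluted 10-fold and premixed 45 min at 4 °C with FITC anti-myc antibody, giving pseudo-bivalent Nanobodies, before binding to the cells.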

B1: P2X7PMP7D8 (VHH)
VHH: EVQLVESGGGLVQPGGSLRLSCAASGLTLEYYNIGWFRQAPGKEREGVACIDWTEGSTFYVDSVKGRFTISTDNAKNTVYLHMNSLEPEDTAVYYCAAGWGRVITVQHMCADRSLFTSWGQGTQVTVSS
notes: family 13; on phage or c-myc/His6-tagged in assays
In the case of B1, the binding result in the assay with mouse P2X7 [1] was “binds”.

B2: P2X7PMP8F5 (VHH)
VHH: EVQLVKSGGGLVQAGGSLRLSCAASGSFFRVNNMAWYRQAPGKQRELVADITRGDRTNYADSVNGRFTISRDNVRNTVYLQMNGLKPEDTAVYYCYARIELGPLVPRDYWGQGTQVTVSS
notes: family 5, 2; on phage or c-myc/His6-tagged in assays
On to B2, for which, in the assay with mouse P2X7 [2], the “MFI FACS (pre-Myc incubation)” value came to 143 MFI. Also, the binding result with human P2X7 was “no binding (tested: 147 nM)”. Moreover, the binding result with human P2X4 is listed as “no binding (tested: 147 nM)”. In addition, the “absorption ratio (ELISA)” value in the assay with mouse P2X7 [3] was determined as 16 ratio. In addition, the “Fold Cho P2X7/wt (phage ELISA)” value with mouse P2X7 [4] is 16 fold. In the assay with mouse P2X7 [5], the “ATP IC50 by 2 uM NB (head prints 'mM'; ligand titration at fixed Nanobody, CD62L shedding, Yac-1 cells)” value amounted to 0.171 mM; the “IC50 (nM) against 20 uM NAD (CD62L shedding, Yac-1 cells)” value is 579 nM; the “IC50 (nM) against 100 uM ATP (CD62L shedding, Yac-1 cells)” value stood at 350 nM.

B3: P2X7PMP8H10 (VHH)
VHH: B2 VHH with K6E, A40G, R98T, P103V, V105E
notes: family 5, 3; on phage or c-myc/His6-tagged in assays
Turning to B3, the “MFI FACS (pre-Myc incubation)” value with mouse P2X7 [2] amounted to 94 MFI. For the same molecule, the “absorption ratio (ELISA)” value in the assay with mouse P2X7 [3] came to 19 ratio.

B4: P2X7PMP18C1 (VHH)
VHH: EVQLVESGGDLVQPGGSLRLSCVASGFALEEHAIGWFRQAPGKEREGVSLSSYLGAAYYATSVKGRFTISRDNAKNTVTLQMNSLKPEDTAVYYCARGHFTYDDGRITIRSVDYWGKGTLVTVSS
notes: family 25; on phage or c-myc/His6-tagged in assays
Take B4: the “MFI FACS (pre-Myc incubation)” value with mouse P2X7 [2] was determined as 63 MFI. For the same molecule, the binding result in the assay with human P2X7 and in the assay with human P2X4 was “no binding (tested: 147 nM)” in each case. The “absorption ratio (ELISA)” value with mouse P2X7 [3] was 18 ratio. Besides, the “Fold Cho P2X7/wt (phage ELISA)” value with mouse P2X7 [4] was determined as 18 fold.

B5: P2X7PMP18A7 (VHH)
VHH: B4 VHH with L54V, A57V, T79Y, T108S, Y114H
notes: as for B4
With B5, the “MFI FACS (pre-Myc incubation)” value with mouse P2X7 [2] was 69 MFI. Moreover, the binding result with human P2X7 and with human P2X4 was “no binding (tested: 147 nM)” in each case. Moreover, in the assay with mouse P2X7 [3], the “absorption ratio (ELISA)” value amounted to 14 ratio. In the assay with mouse P2X7 [4], the “Fold Cho P2X7/wt (phage ELISA)” value amounted to 14 fold.

B6: P2X7PMP5F1 (VHH)
VHH: EVQLVESGGGLVQAGGSLRLSCAASERTYSMGWFRQAPGKEREFVAGSGWDGIPTRYADSVKGRFTISRDNAKNTVSLQMSGLKPEDTAIYYCATGTSVYHYQYWGQGTQVTVSS
notes: family 3; on phage or c-myc/His6-tagged in assays
With B6, the binding result with mouse P2X7 [1] is “binds”.

B7: P2X7PMP13B2 (VHH)
VHH: B6 VHH with T75A
notes: as for B6
As to B7, in the assay with mouse P2X7 [1], the binding result is “binds”.

B8: P2X7PMP7F1 (VHH)
VHH: B6 VHH with N74S
notes: as for B6
As for B8, the binding result in the assay with mouse P2X7 [1] is on record as “binds”.

B9: P2X7PMP11D3 (VHH)
VHH: B6 VHH with A14P
notes: as for B6
Consider B9, for which, in the assay with mouse P2X7 [1], the binding result is “binds”.

B10: P2X7PMP11A1 (VHH)
VHH: B6 VHH with M31V, I53T
notes: as for B6
As for B10, the binding result with mouse P2X7 [1] is reported as “binds”.

B11: P2X7PMP7F3 (VHH)
VHH: B6 VHH with G8R, G63S
notes: as for B6
As to B11, the binding result with mouse P2X7 [1] is “binds”.

B12: P2X7PMP5B1 (VHH)
VHH: B6 VHH with W105R
notes: as for B6
In the case of B12, the binding result with mouse P2X7 [1] is “binds”.

B13: P2X7PMP11G1 (VHH)
VHH: B6 VHH with Q36R
notes: as for B6
For the molecule B13, the binding result in the assay with mouse P2X7 [1] is listed as “binds”.

B14: P2X7PMP1G6 (VHH)
VHH: EVQLVESGGGLVQAGGSLRLSCAASPGAFSSFNMGWFRQTPGKEREFVAATSWSDISTYYADSVKGRFTISRDNAKNTVTLEMNSLKPEDTAVYYCAAGYYRGGYLGYRLTLEGSYDVWGQGTQVTVSS
notes: family 15; on phage or c-myc/His6-tagged in assays
B14: the “MFI FACS (pre-Myc incubation)” value with mouse P2X7 [2] amounted to 11 MFI. In addition, the binding result in the assay with human P2X7 and in the assay with human P2X4 was “no binding (tested: 147 nM)” throughout. For the same molecule, the “absorption ratio (ELISA)” value with mouse P2X7 [3] worked out at 12 ratio. Moreover, the “Fold Cho P2X7/wt (phage ELISA)” value with mouse P2X7 [4] amounted to 12 fold.

B15: P2X7PMP16D9 (VHH)
VHH: B14 VHH with A28T
notes: as for B14
On to B15, for which the “MFI FACS (pre-Myc incubation)” value with mouse P2X7 [2] was determined as 53 MFI. The binding result with human P2X7 and with human P2X4 was “no binding (tested: 147 nM)” throughout. In the assay with mouse P2X7 [3], the “absorption ratio (ELISA)” value was found to be 7 ratio. Moreover, in the assay with mouse P2X7 [4], the “Fold Cho P2X7/wt (phage ELISA)” value stood at 7 fold.

B16: P2X7PMP4G6 (VHH)
VHH: EVQLVESGGDVVQAGGSLRLSCLASGFTFDDYAIGWFRQAPGKEREGISCISSTGNVFYADSVKGRFTISSDKEKNTLYLQMNSLKPEDTAVYHCAAGHFTVDSGKVLLRTDVSSWGQGTQVTVSS
notes: family 1; on phage or c-myc/His6-tagged in assays
B16: the binding result with mouse P2X7 [1] is reported as “binds”.

B17: P2X7PMP20E8 (VHH)
VHH: B16 VHH with E88G, V113I
notes: as for B16
For the molecule B17, in the assay with mouse P2X7 [1], the binding result is on record as “binds”.

B18: P2X7PMP16H8 (VHH)
VHH: B16 VHH with F67L, V113I
notes: as for B16
B18: the binding result with mouse P2X7 [1] was “binds”.

B19: P2X7PMP7F9 (VHH)
VHH: EVQLVESGGGLVQAGASLRVSCAASARTGSYTMGWFRQAPGKEREFVSTISWNGASTVYADSVKGRFTISRDNAKNTVSLQMNSLKPEDTAVYYCAGSISSYSSRWQDDYEYWGQGTQVTVSS
notes: family 9; on phage or c-myc/His6-tagged in assays
As for B19, the binding result with mouse P2X7 [1] is listed as “binds”.

B20: P2X7PMP1A8 (VHH)
VHH: EVQLVESGGGLVQTGGSLRLSCAASGFTLDDYAIAWFRQAPGKEREGVSILSSIGKTFYADSVKDRFSITADGAKTTVFLQMNSLKPGDTAIYYCVAGHFVYNDGAISLNTARGSGFWGQGAQVTVSS
notes: family 2; on phage or c-myc/His6-tagged in assays
On to B20, for which the “MFI FACS (pre-Myc incubation)” value with mouse P2X7 [2] came out at 18 MFI. Also, the binding result with human P2X7 and with human P2X4 was “no binding (tested: 147 nM)” throughout. Further, the “absorption ratio (ELISA)” value in the assay with mouse P2X7 [3] came out at 21 ratio. Further, the “Fold Cho P2X7/wt (phage ELISA)” value in the assay with mouse P2X7 [4] was 20 fold.

B21: P2X7PMP20C9 (VHH)
VHH: B20 VHH with V63A, G88E, A122T
notes: as for B20
B21: the “MFI FACS (pre-Myc incubation)” value with mouse P2X7 [2] was determined as 97 MFI. In addition, the binding result with human P2X7 and with human P2X4 was “no binding (tested: 147 nM)” in each case. In the assay with mouse P2X7 [3], the “absorption ratio (ELISA)” value was determined as 11 ratio. Further, the “Fold Cho P2X7/wt (phage ELISA)” value with mouse P2X7 [4] turned out to be 11 fold.
